{"source": "patent US20240261333A1", "about": "“NOVEL TARGETS FOR ENHANCING ANTI-TUMOR IMMUNITY” (THE BROAD INSTITUTE, INC., priority 2021, published 2024)", "key": {"ATXN2 (human)": {"biological_target": "ATXN2 (human) (UniProt Q99700)", "assay": "co-IP, IgG control, lysate of cells with N-FLAG B3GNT2; mass spectrometry"}, "CAT (human)": {"biological_target": "CAT (human) (UniProt P04040)", "sequence (P04040 2-527 limits assumed)": "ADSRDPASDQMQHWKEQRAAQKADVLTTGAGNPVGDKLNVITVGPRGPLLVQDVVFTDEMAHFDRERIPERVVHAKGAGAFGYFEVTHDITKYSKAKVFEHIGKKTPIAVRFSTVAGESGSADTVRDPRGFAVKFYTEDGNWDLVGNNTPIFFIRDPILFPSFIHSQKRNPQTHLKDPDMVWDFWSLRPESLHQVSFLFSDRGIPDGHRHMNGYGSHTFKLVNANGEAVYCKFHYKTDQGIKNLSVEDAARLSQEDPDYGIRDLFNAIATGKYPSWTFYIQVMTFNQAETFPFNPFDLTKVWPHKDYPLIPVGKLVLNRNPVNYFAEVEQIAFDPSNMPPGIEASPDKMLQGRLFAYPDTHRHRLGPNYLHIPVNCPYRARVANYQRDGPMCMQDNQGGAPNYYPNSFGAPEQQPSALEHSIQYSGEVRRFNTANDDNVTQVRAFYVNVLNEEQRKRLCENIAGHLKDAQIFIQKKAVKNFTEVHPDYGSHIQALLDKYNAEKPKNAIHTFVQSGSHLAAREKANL", "assay": "co-IP, IgG control, lysate of cells with N-FLAG B3GNT2; mass spectrometry"}, "DNAJC3 (human)": {"biological_target": "DNAJC3 (human) (UniProt Q13217)", "assay": "co-IP, IgG control, lysate of cells with N-FLAG B3GNT2; mass spectrometry"}, "EIF5B (human)": {"biological_target": "EIF5B (human) (UniProt O60841)", "sequence (O60841 whole entry)": "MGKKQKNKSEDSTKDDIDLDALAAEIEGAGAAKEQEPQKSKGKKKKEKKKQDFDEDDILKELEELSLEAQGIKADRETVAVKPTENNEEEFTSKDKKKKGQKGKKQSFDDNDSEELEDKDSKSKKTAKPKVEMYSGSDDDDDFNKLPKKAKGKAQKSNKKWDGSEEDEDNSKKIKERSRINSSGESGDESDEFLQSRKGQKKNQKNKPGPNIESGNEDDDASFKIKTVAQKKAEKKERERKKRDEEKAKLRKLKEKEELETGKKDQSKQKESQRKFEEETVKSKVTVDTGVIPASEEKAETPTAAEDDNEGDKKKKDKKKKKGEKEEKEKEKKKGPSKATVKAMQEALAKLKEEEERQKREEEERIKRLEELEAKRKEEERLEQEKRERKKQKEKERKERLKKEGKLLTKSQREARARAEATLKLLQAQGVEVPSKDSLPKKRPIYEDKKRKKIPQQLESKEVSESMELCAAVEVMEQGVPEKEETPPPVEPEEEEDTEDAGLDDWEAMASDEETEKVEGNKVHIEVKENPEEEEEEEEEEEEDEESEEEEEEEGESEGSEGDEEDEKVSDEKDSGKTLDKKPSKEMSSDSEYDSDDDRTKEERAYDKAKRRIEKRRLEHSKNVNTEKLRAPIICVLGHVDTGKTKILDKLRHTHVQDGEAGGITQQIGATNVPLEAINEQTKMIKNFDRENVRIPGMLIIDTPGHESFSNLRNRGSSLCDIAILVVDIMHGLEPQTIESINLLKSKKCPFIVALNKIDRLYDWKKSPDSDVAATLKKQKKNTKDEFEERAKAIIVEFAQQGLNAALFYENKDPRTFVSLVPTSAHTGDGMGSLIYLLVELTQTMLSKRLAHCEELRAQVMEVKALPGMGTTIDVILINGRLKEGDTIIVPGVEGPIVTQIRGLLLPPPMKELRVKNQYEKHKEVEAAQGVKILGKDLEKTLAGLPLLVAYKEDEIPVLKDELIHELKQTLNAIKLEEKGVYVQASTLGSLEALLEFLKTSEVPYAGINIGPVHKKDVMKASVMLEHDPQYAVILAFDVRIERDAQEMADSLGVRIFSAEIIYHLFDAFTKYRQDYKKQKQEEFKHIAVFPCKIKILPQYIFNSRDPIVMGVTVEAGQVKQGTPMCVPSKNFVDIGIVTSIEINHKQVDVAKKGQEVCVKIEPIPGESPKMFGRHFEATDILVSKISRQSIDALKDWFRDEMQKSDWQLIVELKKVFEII", "assay": "co-IP, IgG control, lysate of cells with N-FLAG B3GNT2; mass spectrometry"}, "FUBP3 (human)": {"biological_target": "FUBP3 (human) (UniProt Q96I24)", "assay": "co-IP, IgG control, lysate of cells with N-FLAG B3GNT2; mass spectrometry"}, "G3BP1 (human)": {"biological_target": "G3BP1 (human) (UniProt Q13283)", "assay": "co-IP, IgG control, lysate of cells with N-FLAG B3GNT2; mass spectrometry"}, "GGCT (human)": {"biological_target": "GGCT (human) (UniProt O75223)", "sequence (O75223 whole entry)": "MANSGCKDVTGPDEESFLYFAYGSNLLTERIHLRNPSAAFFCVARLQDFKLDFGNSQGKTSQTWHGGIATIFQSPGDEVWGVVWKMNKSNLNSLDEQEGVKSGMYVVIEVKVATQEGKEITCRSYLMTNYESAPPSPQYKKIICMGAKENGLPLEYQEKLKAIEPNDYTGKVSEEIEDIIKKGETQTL", "assay": "co-IP, IgG control, lysate of cells with N-FLAG B3GNT2; mass spectrometry"}, "HNRNPA2B1 (human)": {"biological_target": "HNRNPA2B1 (human) (UniProt P22626)", "assay": "co-IP, IgG control, lysate of cells with N-FLAG B3GNT2; mass spectrometry"}, "HSPA8 (human)": {"biological_target": "HSPA8 (human) (UniProt P11142)", "sequence (P11142 2-646 limits assumed)": "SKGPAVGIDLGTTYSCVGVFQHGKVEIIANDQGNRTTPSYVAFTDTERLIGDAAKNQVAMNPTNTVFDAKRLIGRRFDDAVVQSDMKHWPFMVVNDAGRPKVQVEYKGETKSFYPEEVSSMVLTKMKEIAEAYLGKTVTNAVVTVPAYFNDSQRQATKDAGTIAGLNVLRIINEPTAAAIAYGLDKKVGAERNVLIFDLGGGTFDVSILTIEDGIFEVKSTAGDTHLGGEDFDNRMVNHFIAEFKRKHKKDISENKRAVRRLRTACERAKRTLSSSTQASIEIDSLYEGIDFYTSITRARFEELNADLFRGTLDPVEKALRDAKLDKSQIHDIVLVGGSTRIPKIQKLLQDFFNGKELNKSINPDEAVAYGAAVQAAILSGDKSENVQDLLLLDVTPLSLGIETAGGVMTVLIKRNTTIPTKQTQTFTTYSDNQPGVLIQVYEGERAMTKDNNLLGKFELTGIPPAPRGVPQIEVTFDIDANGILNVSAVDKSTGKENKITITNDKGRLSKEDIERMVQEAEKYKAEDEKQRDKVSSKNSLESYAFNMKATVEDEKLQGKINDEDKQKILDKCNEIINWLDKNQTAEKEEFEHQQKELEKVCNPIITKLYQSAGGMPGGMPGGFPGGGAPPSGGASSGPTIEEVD", "assay": "co-IP, IgG control, lysate of cells with N-FLAG B3GNT2; mass spectrometry"}, "HUWE1 (human)": {"biological_target": "HUWE1 (human) (UniProt Q7Z6Z7)", "assay": "co-IP, IgG control, lysate of cells with N-FLAG B3GNT2; mass spectrometry"}, "KRT6B (human)": {"biological_target": "KRT6B (human) (UniProt P04259)", "assay": "co-IP, IgG control, lysate of cells with N-FLAG B3GNT2; mass spectrometry"}, "MOV10 (human)": {"biological_target": "T1, MOV10 (human) (UniProt Q9HCE1)", "T1 sequence (looked up)": "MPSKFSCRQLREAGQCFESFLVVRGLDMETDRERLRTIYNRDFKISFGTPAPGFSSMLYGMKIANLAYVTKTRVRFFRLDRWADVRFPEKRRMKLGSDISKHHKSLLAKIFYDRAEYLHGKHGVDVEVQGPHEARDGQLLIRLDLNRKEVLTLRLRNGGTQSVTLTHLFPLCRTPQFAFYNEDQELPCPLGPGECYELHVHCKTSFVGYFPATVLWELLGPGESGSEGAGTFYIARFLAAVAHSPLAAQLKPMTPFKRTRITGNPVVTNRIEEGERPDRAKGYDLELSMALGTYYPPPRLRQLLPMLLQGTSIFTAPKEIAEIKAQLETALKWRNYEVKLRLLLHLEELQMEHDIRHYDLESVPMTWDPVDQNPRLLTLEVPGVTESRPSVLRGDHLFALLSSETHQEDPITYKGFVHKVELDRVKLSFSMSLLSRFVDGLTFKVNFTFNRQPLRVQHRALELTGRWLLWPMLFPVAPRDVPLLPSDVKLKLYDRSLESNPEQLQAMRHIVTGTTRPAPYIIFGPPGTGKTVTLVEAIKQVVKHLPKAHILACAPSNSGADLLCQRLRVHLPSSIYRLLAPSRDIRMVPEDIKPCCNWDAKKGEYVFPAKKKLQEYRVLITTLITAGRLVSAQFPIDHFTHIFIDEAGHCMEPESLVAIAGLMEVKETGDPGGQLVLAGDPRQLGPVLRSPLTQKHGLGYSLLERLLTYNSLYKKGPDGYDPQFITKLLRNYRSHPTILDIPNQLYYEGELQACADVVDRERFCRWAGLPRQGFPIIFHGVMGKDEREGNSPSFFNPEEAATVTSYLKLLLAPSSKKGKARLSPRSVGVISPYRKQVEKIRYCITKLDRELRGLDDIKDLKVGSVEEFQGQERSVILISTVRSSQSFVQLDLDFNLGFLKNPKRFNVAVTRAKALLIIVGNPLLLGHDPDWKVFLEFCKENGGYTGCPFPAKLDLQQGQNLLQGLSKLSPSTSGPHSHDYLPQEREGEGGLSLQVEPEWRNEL", "assay": "co-IP, IgG control, lysate of cells with N-FLAG B3GNT2; mass spectrometry"}, "MYH11 (human)": {"biological_target": "MYH11 (human) (UniProt P35749)", "assay": "co-IP, IgG control, lysate of cells with N-FLAG B3GNT2; mass spectrometry"}, "PARP1 (human)": {"biological_target": "PARP1 (human) (UniProt P09874)", "sequence (P09874 2-1014 limits assumed)": "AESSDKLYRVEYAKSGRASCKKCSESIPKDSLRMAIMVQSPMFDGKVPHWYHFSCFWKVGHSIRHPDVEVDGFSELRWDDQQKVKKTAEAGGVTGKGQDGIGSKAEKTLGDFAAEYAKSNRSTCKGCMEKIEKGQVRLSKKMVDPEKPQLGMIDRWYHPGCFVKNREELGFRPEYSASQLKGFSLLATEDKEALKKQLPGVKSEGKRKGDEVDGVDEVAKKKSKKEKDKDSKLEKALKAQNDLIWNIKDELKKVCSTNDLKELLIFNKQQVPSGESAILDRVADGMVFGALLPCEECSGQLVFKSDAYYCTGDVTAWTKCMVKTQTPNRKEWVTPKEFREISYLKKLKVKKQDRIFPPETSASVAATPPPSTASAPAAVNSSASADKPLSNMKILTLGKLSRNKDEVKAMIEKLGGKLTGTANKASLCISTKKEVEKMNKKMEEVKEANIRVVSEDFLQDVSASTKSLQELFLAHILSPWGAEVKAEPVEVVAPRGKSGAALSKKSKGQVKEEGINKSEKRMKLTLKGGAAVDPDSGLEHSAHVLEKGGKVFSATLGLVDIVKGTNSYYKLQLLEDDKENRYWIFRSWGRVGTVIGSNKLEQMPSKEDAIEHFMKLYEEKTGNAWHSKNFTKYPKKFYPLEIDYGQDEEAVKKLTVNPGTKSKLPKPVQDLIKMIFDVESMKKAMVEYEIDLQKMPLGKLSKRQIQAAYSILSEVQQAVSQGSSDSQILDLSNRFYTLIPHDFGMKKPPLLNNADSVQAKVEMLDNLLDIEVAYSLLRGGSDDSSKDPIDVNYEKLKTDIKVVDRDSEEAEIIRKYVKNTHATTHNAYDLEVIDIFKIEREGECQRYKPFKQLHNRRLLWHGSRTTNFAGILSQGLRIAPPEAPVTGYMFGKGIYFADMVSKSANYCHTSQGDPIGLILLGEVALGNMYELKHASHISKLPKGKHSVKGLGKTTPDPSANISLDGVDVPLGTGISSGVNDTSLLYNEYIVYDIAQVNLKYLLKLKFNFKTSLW", "assay": "co-IP, IgG control, lysate of cells with N-FLAG B3GNT2; mass spectrometry"}, "PRRC2A (human)": {"biological_target": "PRRC2A (human) (UniProt P48634)", "assay": "co-IP, IgG control, lysate of cells with N-FLAG B3GNT2; mass spectrometry"}, "RBM39 (human)": {"biological_target": "RBM39 (human) (UniProt Q14498)", "sequence (Q14498 other isoform, or with tags, fused parts or gaps limits assumed)": "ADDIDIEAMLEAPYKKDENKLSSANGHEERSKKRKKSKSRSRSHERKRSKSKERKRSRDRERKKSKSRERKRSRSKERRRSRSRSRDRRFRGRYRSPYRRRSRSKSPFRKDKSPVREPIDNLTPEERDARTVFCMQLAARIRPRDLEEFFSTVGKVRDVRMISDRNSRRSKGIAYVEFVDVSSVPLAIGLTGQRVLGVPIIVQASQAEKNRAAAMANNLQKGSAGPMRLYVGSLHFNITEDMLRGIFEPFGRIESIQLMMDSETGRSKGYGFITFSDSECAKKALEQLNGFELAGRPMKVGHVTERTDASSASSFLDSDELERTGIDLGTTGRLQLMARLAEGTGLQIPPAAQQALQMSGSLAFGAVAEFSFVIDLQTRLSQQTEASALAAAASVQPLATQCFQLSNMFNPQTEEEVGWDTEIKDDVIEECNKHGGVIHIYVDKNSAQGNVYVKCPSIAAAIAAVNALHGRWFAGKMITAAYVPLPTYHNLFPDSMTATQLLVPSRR", "assay": "co-IP, IgG control, lysate of cells with N-FLAG B3GNT2; mass spectrometry"}, "RPL10 (human)": {"biological_target": "RPL10 (human) (UniProt P27635)", "assay": "co-IP, IgG control, lysate of cells with N-FLAG B3GNT2; mass spectrometry"}, "RPL13 (human)": {"biological_target": "RPL13 (human) (UniProt P26373)", "assay": "co-IP, IgG control, lysate of cells with N-FLAG B3GNT2; mass spectrometry"}, "RPL18 (human)": {"biological_target": "RPL18 (human) (UniProt Q07020)", "assay": "co-IP, IgG control, lysate of cells with N-FLAG B3GNT2; mass spectrometry"}, "RPL4 (human)": {"biological_target": "RPL4 (human) (UniProt P36578)", "assay": "co-IP, IgG control, lysate of cells with N-FLAG B3GNT2; mass spectrometry"}, "UBAP2L (human)": {"biological_target": "UBAP2L (human) (UniProt Q14157)", "assay": "co-IP, IgG control, lysate of cells with N-FLAG B3GNT2; mass spectrometry"}, "ARHGEF2 (human)": {"biological_target": "ARHGEF2 (human) (UniProt Q92974)", "assay": "co-IP with control IgG, mass spectrometry; lysate of cells with N-FLAG B3GNT2"}, "CTHRC1 (human)": {"biological_target": "CTHRC1 (human) (UniProt Q96CG8)", "sequence (Q96CG8 other isoform, or with tags, fused parts or gaps limits assumed)": "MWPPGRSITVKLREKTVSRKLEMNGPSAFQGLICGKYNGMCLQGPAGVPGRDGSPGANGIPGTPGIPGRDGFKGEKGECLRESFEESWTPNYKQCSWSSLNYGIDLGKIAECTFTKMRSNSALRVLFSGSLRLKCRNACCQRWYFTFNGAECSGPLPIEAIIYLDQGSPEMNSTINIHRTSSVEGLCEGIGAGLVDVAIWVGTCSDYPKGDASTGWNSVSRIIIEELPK", "assay": "co-IP with control IgG, mass spectrometry; lysate of cells with N-FLAG B3GNT2"}, "MARS (human)": {"biological_target": "MARS (human) (UniProt P56192)", "assay": "co-IP with control IgG, mass spectrometry; lysate of cells with N-FLAG B3GNT2"}, "RPS27 (human)": {"biological_target": "RPS27 (human) (UniProt P42677)", "assay": "co-IP with control IgG, mass spectrometry; lysate of cells with N-FLAG B3GNT2"}, "SLC27A4 (human)": {"biological_target": "SLC27A4 (human) (UniProt Q6P1M0)", "sequence (Q6P1M0 whole entry)": "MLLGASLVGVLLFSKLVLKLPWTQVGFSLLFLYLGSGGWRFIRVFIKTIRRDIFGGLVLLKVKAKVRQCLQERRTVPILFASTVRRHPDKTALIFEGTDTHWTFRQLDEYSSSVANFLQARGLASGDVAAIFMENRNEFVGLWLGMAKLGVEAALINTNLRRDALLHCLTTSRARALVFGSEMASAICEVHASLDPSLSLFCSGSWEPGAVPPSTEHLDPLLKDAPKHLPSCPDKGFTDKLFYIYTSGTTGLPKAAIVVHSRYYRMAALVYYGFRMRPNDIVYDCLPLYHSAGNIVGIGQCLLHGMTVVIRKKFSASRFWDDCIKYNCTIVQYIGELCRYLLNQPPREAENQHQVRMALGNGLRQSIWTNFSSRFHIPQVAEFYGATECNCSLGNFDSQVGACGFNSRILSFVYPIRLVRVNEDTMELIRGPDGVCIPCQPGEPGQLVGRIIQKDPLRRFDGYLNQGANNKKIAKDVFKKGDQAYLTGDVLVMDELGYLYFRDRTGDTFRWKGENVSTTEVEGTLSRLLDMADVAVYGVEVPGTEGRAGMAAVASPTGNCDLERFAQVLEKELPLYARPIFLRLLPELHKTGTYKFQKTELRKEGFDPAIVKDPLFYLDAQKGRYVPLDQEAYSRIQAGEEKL", "assay": "co-IP with control IgG, mass spectrometry; lysate of cells with N-FLAG B3GNT2"}}, "data": [{"substance": "IgG control (Millipore Sigma 12-371) (antibody)", "values": [{"measurement": "co-IP mass spectrometry count", "setting": "ATXN2 (human)", "result": 3}, {"measurement": "co-IP mass spectrometry count", "setting": "CAT (human)", "result": 2}, {"measurement": "co-IP mass spectrometry count", "setting": "DNAJC3 (human)", "result": 0}, {"measurement": "co-IP mass spectrometry count", "setting": "EIF5B (human)", "result": 0}, {"measurement": "co-IP mass spectrometry count", "setting": "FUBP3 (human)", "result": 8}, {"measurement": "co-IP mass spectrometry count", "setting": "G3BP1 (human)", "result": 29}, {"measurement": "co-IP mass spectrometry count", "setting": "GGCT (human)", "result": 0}, {"measurement": "co-IP mass spectrometry count", "setting": "HNRNPA2B1 (human)", "result": 4}, {"measurement": "co-IP mass spectrometry count", "setting": "HSPA8 (human)", "result": 16}, {"measurement": "co-IP mass spectrometry count", "setting": "HUWE1 (human)", "result": 0}, {"measurement": "co-IP mass spectrometry count", "setting": "KRT6B (human)", "result": 316}, {"measurement": "co-IP mass spectrometry count", "setting": "MOV10 (human)", "result": 3}, {"measurement": "co-IP mass spectrometry count", "setting": "MYH11 (human)", "result": 3}, {"measurement": "co-IP mass spectrometry count", "setting": "PARP1 (human)", "result": 0}, {"measurement": "co-IP mass spectrometry count", "setting": "PRRC2A (human)", "result": 3}, {"measurement": "co-IP mass spectrometry count", "setting": "RBM39 (human)", "result": 5}, {"measurement": "co-IP mass spectrometry count", "setting": "RPL10 (human)", "result": 3}, {"measurement": "co-IP mass spectrometry count", "setting": "RPL13 (human)", "result": 6}, {"measurement": "co-IP mass spectrometry count", "setting": "RPL18 (human)", "result": 5}, {"measurement": "co-IP mass spectrometry count", "setting": "RPL4 (human)", "result": 11}, {"measurement": "co-IP mass spectrometry count", "setting": "UBAP2L (human)", "result": 20}, {"measurement": "co-IP mass spectrometry count", "setting": "ARHGEF2 (human)", "result": 0}, {"measurement": "co-IP mass spectrometry count", "setting": "CTHRC1 (human)", "result": 0}, {"measurement": "co-IP mass spectrometry count", "setting": "MARS (human)", "result": 0}, {"measurement": "co-IP mass spectrometry count", "setting": "RPS27 (human)", "result": 0}, {"measurement": "co-IP mass spectrometry count", "setting": "SLC27A4 (human)", "result": 0}]}]}
